Among the data in patent US20250145684A1 (IMMATICS BIOTECHNOLOGIES, published 2025) are binding result and peptide exchange yield values, retold here.

B1: EEFLTPKKL (SEQ ID NO: 290) (peptide)
peptide: EEFLTPKKL
B2: YVYANHFTEA (SEQ ID NO: 291) (peptide)
peptide: YVYANHFTEA
notes: also called COL6A3-039
B3: ILCGSRKMPL (SEQ ID NO: 56) (peptide)
peptide: ILCGSRKMPL
B4: SIKKELVVL (SEQ ID NO: 61) (peptide)
peptide: SIKKELVVL
B5: FDFRGKTKVF (SEQ ID NO: 59) (peptide)
peptide: FDFRGKTKVF
B6: DLKIPRYPV (SEQ ID NO: 68) (peptide)
peptide: DLKIPRYPV
B7: VLLMGPLHL (SEQ ID NO: 100) (peptide)
peptide: VLLMGPLHL
B8: VPYTKVQL (SEQ ID NO: 89) (peptide)
peptide: VPYTKVQL
B9: YITRQFVQF (SEQ ID NO: 84) (peptide)
peptide: YITRQFVQF
B10: ELARQRLL (SEQ ID NO: 69) (peptide)
peptide: ELARQRLL
B11: MLHIKKAEV (SEQ ID NO: 60) (peptide)
peptide: MLHIKKAEV
B12: MFPARGVPL (SEQ ID NO: 73) (peptide)
peptide: MFPARGVPL
B13: LLKGKPRAL (SEQ ID NO: 9) (peptide)
peptide: LLKGKPRAL
B14: AARLRPAL (SEQ ID NO: 7) (peptide)
peptide: AARLRPAL
B15: ERRVKVSSL (SEQ ID NO: 51) (peptide)
peptide: ERRVKVSSL
B16: NVKIRFLE (SEQ ID NO: 99) (peptide)
peptide: NVKIRFLE
B17: LPKLPVPPL (SEQ ID NO: 77) (peptide)
peptide: LPKLPVPPL
B18: ELALRQTV (SEQ ID NO: 48) (peptide)
peptide: ELALRQTV
B19: EVYLRMYQL (SEQ ID NO: 80) (peptide)
peptide: EVYLRMYQL
B20: RPAGVFEL (SEQ ID NO: 96) (peptide)
peptide: RPAGVFEL
B21: GLARIYSF (SEQ ID NO: 79) (peptide)
peptide: GLARIYSF
B22: DLKKTRVL (SEQ ID NO: 66) (peptide)
peptide: DLKKTRVL
B23: DLKKLVDSL (SEQ ID NO: 43) (peptide)
peptide: DLKKLVDSL
B24: SRNPRGFFL (SEQ ID NO: 95) (peptide)
peptide: SRNPRGFFL
B25: RLKVALSTL (SEQ ID NO: 45) (peptide)
peptide: RLKVALSTL
B26: HSRVKLAQL (SEQ ID NO: 47) (peptide)
peptide: HSRVKLAQL
B27: FVRPKLVTI (SEQ ID NO: 8) (peptide)
peptide: FVRPKLVTI
B28: LPLAHHIQL (SEQ ID NO: 72) (peptide)
peptide: LPLAHHIQL
B29: ELILKHSL (SEQ ID NO: 52) (peptide)
peptide: ELILKHSL
B30: TLRLLVAAL (SEQ ID NO: 50) (peptide)
peptide: TLRLLVAAL
B31: EPVNTNVVL (SEQ ID NO: 98) (peptide)
peptide: EPVNTNVVL
B32: LMKEKIQEM (SEQ ID NO: 93) (peptide)
peptide: LMKEKIQEM
B33: HIRIKHTF (SEQ ID NO: 71) (peptide)
peptide: HIRIKHTF
B34: QILQHHVL (SEQ ID NO: 87) (peptide)
peptide: QILQHHVL
B35: YARLKNVLL (SEQ ID NO: 75) (peptide)
peptide: YARLKNVLL
B36: MYRKEQYL (SEQ ID NO: 81) (peptide)
peptide: MYRKEQYL
B37: DGHMKVFSL (SEQ ID NO: 78) (peptide)
peptide: DGHMKVFSL
B38: FMLAKEASL (SEQ ID NO: 62) (peptide)
peptide: FMLAKEASL
B39: YVKRKTNVL (SEQ ID NO: 63) (peptide)
peptide: YVKRKTNVL
B40: DLSRRDVSL (SEQ ID NO: 54) (peptide)
peptide: DLSRRDVSL
B41: DLRNKIIAA (SEQ ID NO: 46) (peptide)
peptide: DLRNKIIAA
B42: MPLKHYLL (SEQ ID NO: 57) (peptide)
peptide: MPLKHYLL
B43: DMNTKRAIHTL (SEQ ID NO: 67) (peptide)
peptide: DMNTKRAIHTL
B44: QKPRKKKL (SEQ ID NO: 85) (peptide)
peptide: QKPRKKKL
B45: FLRVFTDSL (SEQ ID NO: 49) (peptide)
peptide: FLRVFTDSL
B46: LPKKMKLL (SEQ ID NO: 58) (peptide)
peptide: LPKKMKLL
B47: HPRLKVNLL (SEQ ID NO: 76) (peptide)
peptide: HPRLKVNLL
B48: HLTNRVLSL (SEQ ID NO: 44) (peptide)
peptide: HLTNRVLSL
B49: VLLSRRTAL (SEQ ID NO: 55) (peptide)
peptide: VLLSRRTAL
B50: STMPKILAL (SEQ ID NO: 5) (peptide)
peptide: STMPKILAL
B51: MLLCLSLEL (SEQ ID NO: 88) (peptide)
peptide: MLLCLSLEL
B52: FVLLRSVDL (SEQ ID NO: 83) (peptide)
peptide: FVLLRSVDL
B53: FILGREAGAL (SEQ ID NO: 64) (peptide)
peptide: FILGREAGAL
B54: TLKAMVQAW (SEQ ID NO: 92) (peptide)
peptide: TLKAMVQAW
B55: SIRKRPML (SEQ ID NO: 82) (peptide)
peptide: SIRKRPML
B56: TIGLGLHSL (SEQ ID NO: 90) (peptide)
peptide: TIGLGLHSL
B57: NRQKRFVL (SEQ ID NO: 6) (peptide)
peptide: NRQKRFVL
B58: NLLMRNVL (SEQ ID NO: 65) (peptide)
peptide: NLLMRNVL
B59: DLRKLKRQL (SEQ ID NO: 53) (peptide)
peptide: DLRKLKRQL
B60: RPIHHPLVL (SEQ ID NO: 86) (peptide)
peptide: RPIHHPLVL
B61: RPKGTPPL (SEQ ID NO: 70) (peptide)
peptide: RPKGTPPL
B62: DQLLRHVM (SEQ ID NO: 94) (peptide)
peptide: DQLLRHVM
B63: RLKLRYEGL (SEQ ID NO: 74) (peptide)
peptide: RLKLRYEGL
B64: MPMQDIKMIL (SEQ ID NO: 91) (peptide)
peptide: MPMQDIKMIL

The target in one assay is T1, HLA-B*44:05 (human).
T1 construct: MHC monomer first loaded with a UV-sensitive peptide that is cleaved by UV light and exchanged for the test peptide
Kind of assay: UV peptide exchange ELISA. Summed up:
(§1)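 Peptide–MHC complexes formed by UV-mediated exchange of a photocleavable ligand; exchange yield assessed by ELISA on streptavidin-coated plates, samples diluted 100-fold. Bound complexes detected with HRP anti-β2m and TMB at 450 nm against HLA-A*02:01 monomer standards (15–500 ng/ml).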
Regarding B1, the binding result was “binds”.

In another assay the target is T2, HLA-A*02:01 (human).
T2 construct: MHC monomer first loaded with a UV-sensitive peptide that is cleaved by UV light and exchanged for the test peptide
Kind of assay: UV peptide exchange ELISA. Summed up: as §1
Regarding B2, the binding result is “binds”.

The target in another assay is T3, HLA-B*08:01 (human).
T3 construct: MHC monomer first loaded with a UV-sensitive peptide that is cleaved by UV light and exchanged for the test peptide
Kind of assay: UV peptide exchange ELISA. Summed up:
as §1
In general terms: In an ELISA, binding on a coated surface is turned into a signal by an enzyme label.
The molecule B3 yielded a peptide exchange yield of 20 to 50%.

As for B4, the peptide exchange yield fell in the range of 20 to 50%.

Take B5: the peptide exchange yield was 20 to 50%.

As for B6, the peptide exchange yield lay in the range of 50 to 75%.

B7 showed a peptide exchange yield of 20 to 50%.

For the molecule B8, the peptide exchange yield lay in the range of 50 to 75%.

Take B9: the peptide exchange yield was in the range of 20 to 50%.

For the molecule B10, the peptide exchange yield was in the range of 20 to 50%.

B11: the peptide exchange yield was in the range of 50 to 75%.

For the molecule B12, the peptide exchange yield was 20 to 50%.

As to B13, the peptide exchange yield is 20 to 50%.

Turning to B14, the peptide exchange yield lay in the range of 20 to 50%.

B15: the peptide exchange yield fell in the range of 50 to 75%.

Molecule B16 had a peptide exchange yield of 20 to 50%.

Regarding B17, the peptide exchange yield lay within 50 to 75%.

Turning to B18, the peptide exchange yield lay in the range of 20 to 50%.

Take B19: the peptide exchange yield was 50 to 75%.

With B20, the peptide exchange yield lay in the range of 20 to 50%.

Regarding B21, the peptide exchange yield is 20 to 50%.

B22 gave a peptide exchange yield of 20 to 50%.

B23 gave a peptide exchange yield of 50 to 75%.

B24 gave a peptide exchange yield of 20 to 50%.

In the case of B25, the peptide exchange yield lay within 50 to 75%.

The molecule B26 came in with a peptide exchange yield of 20 to 50%.

With B27, the peptide exchange yield is 50 to 75%.

In turn, B28 displayed a peptide exchange yield of 50 to 75%.

The molecule B29 showed a peptide exchange yield of 50 to 75%.

In the case of B30, the peptide exchange yield lay within 50 to 75%.

The molecule B31 displayed a peptide exchange yield of 20 to 50%.

Take B32: the peptide exchange yield was in the range of 50 to 75%.

Turning to B33, the peptide exchange yield is 50 to 75%.

Consider B34, for which the peptide exchange yield was in the range of 50 to 75%.

In turn, B35 had a peptide exchange yield of 50 to 75%.

Molecule B36 yielded a peptide exchange yield of 20 to 50%.

Molecule B37 yielded a peptide exchange yield of 20 to 50%.

Turning to B38, the peptide exchange yield was 20 to 50%.

B39 yielded a peptide exchange yield of 20 to 50%.

B40 yielded a peptide exchange yield of 20 to 50%.

B41 registered a peptide exchange yield of 50 to 75%.

B42 came in with a peptide exchange yield of 20 to 50%.

For B43, the peptide exchange yield lay in the range of 20 to 50%.

Regarding B44, the peptide exchange yield was 20 to 50%.

As to B45, the peptide exchange yield lay in the range of 50 to 75%.

As to B46, the peptide exchange yield lay in the range of 20 to 50%.

B47 came in with a peptide exchange yield of 50 to 75%.

Molecule B48 returned a peptide exchange yield of 50 to 75%.

In turn, B49 displayed a peptide exchange yield of 20 to 50%.

The molecule B50 registered a peptide exchange yield of 50 to 75%.

The molecule B51 displayed a peptide exchange yield of 20 to 50%.

Consider B52, for which the peptide exchange yield lay in the range of 50 to 75%.

Regarding B53, the peptide exchange yield was 20 to 50%.

As to B54, the peptide exchange yield is 50 to 75%.

B55 came in with a peptide exchange yield of 20 to 50%.

B56 displayed a peptide exchange yield of 20 to 50%.

B57: the peptide exchange yield lay in the range of 20 to 50%.

For the molecule B58, the peptide exchange yield is 20 to 50%.

The molecule B59 returned a peptide exchange yield of 20 to 50%.

B60 yielded a peptide exchange yield of 20 to 50%.

B61 gave a peptide exchange yield of 20 to 50%.

Molecule B62 had a peptide exchange yield of 50 to 75%.

Consider B63, for which the peptide exchange yield lay in the range of 50 to 75%.

In the case of B64, the peptide exchange yield lay in the range of 20 to 50%.
